# Assay results reported in patent publication US12168677B2, “Proteins for the treatment of epithelial barrier function disorders” (Genevive, Inc., priority 2017, dated 2024).
# B1: SG-15: 400 amino acid protein (SEQ ID NO:1) encoded by the genome of Eubacterium eligens (protein, listed as Eubacterium eligens)
# chain: EYTEIRTASELVEAAKSASGNYKLMTDIDMTGVEWTPWDFSGTFDGNGHSILNLSVKTVSKKTMKTYDGNRKEYKTYGAGFFGVLTGAKVTGLDIYGARIEITTTEPCFAAPIAGLADDSDISDCIIKDTYVSLTDSAKMWGTGGIAGFGSGNLDNITTDVTLVCVDTDAAVRDEQFMGGAYAAGFLNIRNCSITIDGYDSDHGYVHDGGLVGMYMVYPLELSKTYQGEVLNNKVKGMITFFEDNTDRRAYCQANMGEVMNWTYAYSGFTSDFKRNETYDYSVTLLPEMCSNPSYTDVVTEATASDFGYTTHTCSTCGYTYSDTYTIHEHKVDSYSVVKEAASTDKKDGIEAGTCSLCNQTVYREYAANVVTDDNTQATDNKASGTAVKKGMKESTAVFA
# B2: SG-17: 327 amino acid protein (SEQ ID NO:13) encoded by the genome of Eubacterium eligens (protein, listed as Eubacterium eligens)
# chain: CNSKIDVKYDYNVEDYVQLGQYENISVQVDKTSIENELIESKIKQDVEDNTTYTEVDRGAIASDQILVTYTATSSGASLSGLTNTDGKTMILGTDTLGLELDELDQALYGMTPGQTKILIVDIPEDYSSDLYKGTRVVFELTMQTVAQANVPMITNAYVKEAFGYDTVEEYRQSIKESLETDINSKVENKIQEDVLSSLQDTFKISSYPDSLMEETRSRLETSIGFYADFSNLSKDEYCQKQYGLSFDDFVKKSVVQQLIMEAIVKDRNMTMREYDYKGSLDDFAADNGYSNADTFVEKFGKDKIVKAMLVQKAQDYVIEHANISYK
# B3: SG-16: 119 amino acid protein (SEQ ID NO:9) encoded by the genome of Eubacterium eligens (protein, listed as Eubacterium eligens)
# chain: MTGCSGSKEPDNKTSVDYTVVENADLPEELKKLIESKKDKVMRLTYTTKDYTYVVAGYGTRETSGYSIKVNDVYTGDNALYIDLNLIGPAAGEAVNEVETYPVIVLKMERREESVVFKM
# B4: SG-18: 267 amino acid protein (SEQ ID NO:19) encoded by the genome of Clostridium bartlettii sp. nov. (protein, listed as Clostridium bartlettii)
# chain: EVDSSKEQATSKDEKQVVVATSVAITEILDRLGVEVSGVPQTSYELPESAKGATEIGSPMNPDMEIIKSLNPTDVICVDTLGSDFEKQFEENNINADFYNLSNVDGLKETIAALGEKFNKQDKANEILDEIKEVENKVNSNKKSDDKILVLFGAPGSVMVATDKSYIGNLVELAGGNNIFSNATSSFTQINLEEIIKLNPDKILVMTHAVPEAAKKSVEEELSKDLWKNVNAVKNNDITYLENGYFGMSANLQIVEAVEKLGDILYE
# Test system: DSS treated mice
# Assay: DSS model: gross pathology score
# Assay type: in vivo, C57BL/6 mice
# Details: 50 nmoles/kg i.p. b.i.d.; 2.5% DSS 6 days
# Description: Eight-week old C57BL/6 mice were housed 5 animals were cage and given food and water ad libitum for 7 days. Following the 7-day acclimation period, treatments were initiated concurrently with addition of 2.5% DSS to the drinking water. […] The mice were treated with 2.5% dextran sodium sulfate (DSS) in their drinking water for 6 days. Treatments were continued with SG-15 or […]-GLP2 twice a day (b.i.d.) in the morning and evening (every 8 and 16 hr) with i.p. injections at 50 nmoles/kg. Fresh 2.5% DSS drinking water was prepared every 2 days. Gross pathology observations were made in mice included in the concurrent DSS model performed in Example 1E. […] The scoring system used was: (0)=no gross pathology, (1)=streaks of blood visible in feces, (2)=completely bloody fecal pellets, (3) bloody fecal material visible in cecum, (4) bloody fecal material in cecum and loose stool, (5)=rectal bleeding. Results are shown in FIG. 7, with the graph representing data pooled from the 2 individual experiments (n=20).
row,Molecule,Clinical scores compared with DSS mice treated with Gly2-GLP2
1,B1,No differences

# Same assay, conditions: 50 nmoles/kg i.p. b.i.d.; 2.5% DSS 6 days; score 0-5
row,Molecule,Gross pathology compared to vehicle treated DSS mice
1,B2,did not reduce gross pathology
2,B1,significantly improved gross pathology
3,B3,did not reduce gross pathology
4,B4,did not reduce gross pathology

# Test system: DSS treated mice
# Assay: DSS model: colon length
# Assay type: in vivo, C57BL/6 mice
# Details: 50 nmoles/kg i.p. b.i.d.; 2.5% DSS 6 days
# Description: Eight-week old C57BL/6 mice were housed 5 animals were cage and given food and water ad libitum for 7 days. Following the 7-day acclimation period, treatments were initiated concurrently with addition of 2.5% DSS to the drinking water. […] The mice were treated with 2.5% dextran sodium sulfate (DSS) in their drinking water for 6 days. Treatments were continued with SG-15 or […]-GLP2 twice a day (b.i.d.) in the morning and evening (every 8 and 16 hr) with i.p. injections at 50 nmoles/kg. Fresh 2.5% DSS drinking water was prepared every 2 days. Colon length was measured in mice included in the DSS model described in Example 1E. […] The graph in FIG. 8 represents data pooled from the 2 individual experiments (n=20).
row,Molecule,Colon length / colon shortening elicited by DSS treatment
1,B2,did not reduce colon shortening
2,B1,reduced colon shortening
3,B3,slightly improved colon shortening
4,B4,did not reduce colon shortening
